Experimental data published in the RNAGym collection of RNA variant scans (doi:10.1073/pnas.2313332121).
This sample holds only a part of the variants without activity.

B1: TPR 5TU (parent)
chain: GGAUCUUCUCGAUCUAACAAAAAAGACAAAUCUGCCACAAAGCUUGAGAGCAUCUUCGGAUGCAGAGGCGGCAGCCUUCGGUGGCGCGAUAGCGCCAACGUUCUCAACUAUGACACGCAAAACGCGUGCUCCGUUGAAUGGAGUUUAUCAUG

Variants of: B1
Test: polymerase ribozyme fitness, log enrichment relative to wild type (log ratio); higher = more active; in vitro selection for triplet polymerase activity
Summary of the method: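 Input and output libraries were sequenced on Illumina after a single in vitro selection round, run in triplicate on PCR-built, transcribed mutant libraries of each subunit of a heterodimeric triplet polymerase ribozyme. Selection annealed libraries to a biotinylated primer, the partner subunit and triplets, incubated them frozen at −7 °C, then gel-excised extended constructs for streptavidin-bead capture and RT-PCR. Genotypes with ≥10 input reads and ≥1 read per output were kept. Fitness is the logarithm, taken in base 2, of genotype enrichment divided by wild-type enrichment, using inverse-variance-weighted replicate averages.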

Variant	polymerase ribozyme fitness (log ratio)
C108U C132A U139A	≤ -4.2
C108G G136A A147C	≤ -4.2
A120G G141A	1.23
A106G A110U	-3.42
U109G C118A C125G	-3.62
G128A G133A U134C A150G	-3.52
C105G A120U	-0.931
G128U A142C	-3.6
C125U A150U	-0.413
A106G A115U	-1.05
G140U U146C	-3.33
G140U U146G	-3.88
A106U U135A	-2.14
A113U A120G	-1.73
A122G C125A U134G	-2.92
U127G A137U	-4.19
A106C G141A	-0.24
C105G A107U U148C	≤ -4.2
A110U G128A	≤ -4.2
A121C G128C	-2.44
A122U C149U	-0.616

Variant	polymerase ribozyme fitness (log ratio)
U135G A137U	-4.04
C132U G152U	-2.75
A120U A137C A138U	-4.19
A119G U146A	-0.399
G112C	-2.68
G112A	-1.96
G112U	-2.77
U130C U144C A147C	-1.95
G117A U144C	-2.9
C118U A142C	-0.682
C118G A119U G141U	-0.349
A122C G126A	-0.186
C118U U146C	-1.27
U134A A137G	-3.22
A120C C125G G133U	-3.85
U134A U148G	≤ -4.2
A110G G136A	-2.94
A122G G133U	-3.59
G124A G136A	-0.107
C116U U148A	-3.85
A115C U145C	-2.43

Variant	polymerase ribozyme fitness (log ratio)
C118U U135C	-2.19
A137G U145G	-1.02
C118U U148G	-3.62
C118U U148A	-2.79
U127G U144G	-1.7
G133A U134G	-2.81
G140U	-2.62
G140A	-2.67
G140C	-3.16
G124U G143U U148G	≤ -4.2
G124C G141C	-1.16
G124U A142C	-1.75
A107G C132U G133U	-3.52
C118A A121C U144C	-0.821
C114U G141C	-3.4
G126A C129G	-3.97
G124A A150G	-0.501
A106C C114A G140C G141C	≤ -4.2
A119U U127C	-2.06
G112U G141A U148G	≤ -4.2
A110G	-2.42

Variant	polymerase ribozyme fitness (log ratio)
A110U	-3.57
U109G G133C	-2
U127G U134A	-4.18
C116U G124A A142G	-2.45
A106G A142C	-0.922
G126U C132U	-0.717
C129A U148G	-4.11
A110G C129U U144C	≤ -4.2
G117A A142U	-4.13
A115C C123A	-1.17
A115U U146G	-2.23
A107C A110G A121G	≤ -4.2
C116U U130C	1.13
U135A G143A A147G	≤ -4.2
G136A A147G	-1.36
G117U U145G	-3.12
U127C C131A G152U	-3.91
C132U A150G	-2.47
U135A C149U	-0.66
U134A A142C	-2.66
U134A A142G	-3.04
